In this assay the target is MBP fused to the Tudor domain (residues 1484–1603) of 53BP1 (human, UniProt Q12888 1484-1603). As to the kind of experiment: pull-down.

One may read the IC50 as the concentration that gives 50% inhibition.

Non-standard residues stand in square brackets, D forms with d. No end group written: not given here. *: point of attachment. Biotin = O=C1N[C@H]2[C@H](CS[C@H]2CCCCC(=O)*)N1; Lys(Me2) = CN(C)CCCC[C@H](N)C(=O)O

Chain of MBP fused to the Tudor domain (residues 1484–1603) of 53BP1 (Q12888 1484-1603): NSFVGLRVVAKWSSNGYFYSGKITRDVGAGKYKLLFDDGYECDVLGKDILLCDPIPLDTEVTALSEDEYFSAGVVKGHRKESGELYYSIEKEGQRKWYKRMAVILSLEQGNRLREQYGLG

Molecule {Biotin-Mini‑PEG}-YGKGGAKRHR[Lys(Me2)]VLRD [biotin-labeled peptide derived from histone H4K20me2] gave an IC50 of 100 to 300 µM.

For the origin of these results see PMC5762392 (Nature biotechnology, 2017).
